Results as given in patent publication US12606635B2, “Glypican-2-binding moieties, chimeric antigen receptors and uses thereof” (Nanjing Legend Biotech Co., Ltd., priority 2020, dated 2026).

B1: AS71529VH6-hIgG1Fc: AS71529VH6 VHH fused to human IgG1Fc fragment (protein)
chain: EVQLVESGGGLVQPGGSLRLSCAVSEYRYSSRYCMGWFRQAPGKGREGVAAIDSNGSADYVDSVKGRFTISKDNSKNTLYLQMNSLRAEDTAMYYCAADHLAYDCYSGATSVFRYWGQGTLVTVSS
modifications: left off: a dimerising Fc or GST
notes: AS71529VH6 VHH fused to human IgG1Fc fragment
B2: AS71529VH6: humanized anti-GPC2 VHH, SEQ ID NO: 127; tested as VHH-HIS protein (protein)
VHH: EVQLVESGGGLVQPGGSLRLSCAVSEYRYSSRYCMGWFRQAPGKGREGVAAIDSNGSADYVDSVKGRFTISKDNSKNTLYLQMNSLRAEDTAMYYCAADHLAYDCYSGATSVFRYWGQGTLVTVSS
modifications: His tag; AS71529VH6
notes: tested as VHH-HIS protein
B3: AS78117VH4-hIgG1Fc: AS78117VH4 VHH fused to human IgG1Fc fragment (protein)
chain: EVQLVESGGGLVQPGGSLRLSCIVSRYTYATYSMAWFRQAPGKGLEGVSGLDSVGATGYAESVKGRFTISRDNSKNTLYLQMNSLRAEDTAVYYCVVDPASAKVTYGSWSTPSYAYWGQGTLVTVSS
modifications: left off: a dimerising Fc or GST
notes: AS78117VH4 VHH fused to human IgG1Fc fragment
B4: AS71529VH6-AS70950VH6: tandem humanized anti-GPC2 VHH, SEQ ID NO: 146; tested as VHH-HIS protein (protein)
VHH: EVQLVESGGGLVQPGGSLRLSCAVSEYRYSSRYCMGWFRQAPGKGREGVAAIDSNGSADYVDSVKGRFTISKDNSKNTLYLQMNSLRAEDTAMYYCAADHLAYDCYSGATSVFRYWGQGTLVTVSSGGGGSGGGGSGGGGSEVQLVESGGGLVQPGGSLRLSCAISEFTYKNTCVGWFRQAPGKGREGVAAIDSDGNTNYVDSVKGRFTISQDNSKNTVYLQMNSLRAEDTAMYYCAAGAYCGRLLLWIGNYAYWGQGTLVTVSS
modifications: His tag; AS71529VH6-AS70950VH6
notes: tested as VHH-HIS protein
B5: AS70950VH6-hIgG1Fc: AS70950VH6 VHH fused to human IgG1Fc fragment (protein)
chain: EVQLVESGGGLVQPGGSLRLSCAISEFTYKNTCVGWFRQAPGKGREGVAAIDSDGNTNYVDSVKGRFTISQDNSKNTVYLQMNSLRAEDTAMYYCAAGAYCGRLLLWIGNYAYWGQGTLVTVSS
modifications: left off: a dimerising Fc or GST
notes: AS70950VH6 VHH fused to human IgG1Fc fragment
B6: AS70950VH6: humanized anti-GPC2 VHH, SEQ ID NO: 124; tested as VHH-HIS protein (protein)
VHH: EVQLVESGGGLVQPGGSLRLSCAISEFTYKNTCVGWFRQAPGKGREGVAAIDSDGNTNYVDSVKGRFTISQDNSKNTVYLQMNSLRAEDTAMYYCAAGAYCGRLLLWIGNYAYWGQGTLVTVSS
modifications: His tag; AS70950VH6
notes: tested as VHH-HIS protein
B7: AS72669VH6: humanized anti-GPC2 VHH, SEQ ID NO: 130; tested as VHH-HIS protein (protein)
VHH: QVQLVESGGGVVQPGGSLRLSCAASRFTYSSYCMGWIRQAPGKGREGVAIFYTGGGRTYYADSVKGRFTISQDNSKNTLYLQMNSLRAEDTAVYYCVAGFYCSGGYWEGDFGYWGQGTLVTVSS
modifications: His tag; AS72669VH6
notes: tested as VHH-HIS protein
B8: AS79236VH6-hIgG1Fc: AS79236VH6 VHH fused to human IgG1Fc fragment (protein)
chain: EVQLVESGGGLVQPGGSLRLSCAVSGYTYSSYCMAWFRQAPGKGLEGVASIDAGGRTTYVDSVKGRFTISKDNAKNSLYLQMNSLRAEDTAMYYCAVDVRTRCGGTWDGEAVYFPYWGQGTLVTVSS
modifications: left off: a dimerising Fc or GST
notes: AS79236VH6 VHH fused to human IgG1Fc fragment

Columns and labels:
[1] = molecular target: T1, recombinant human GPC2 protein (Homo sapiens, UniProt Q8N158); experiment: ELISA-based specific binding assay, human GPC2; settings: FIG. 3A-3G
T1 construct: His; purchased RD System (R&D Systems) 2304-GP
T1 sequence (Q8N158 24-554): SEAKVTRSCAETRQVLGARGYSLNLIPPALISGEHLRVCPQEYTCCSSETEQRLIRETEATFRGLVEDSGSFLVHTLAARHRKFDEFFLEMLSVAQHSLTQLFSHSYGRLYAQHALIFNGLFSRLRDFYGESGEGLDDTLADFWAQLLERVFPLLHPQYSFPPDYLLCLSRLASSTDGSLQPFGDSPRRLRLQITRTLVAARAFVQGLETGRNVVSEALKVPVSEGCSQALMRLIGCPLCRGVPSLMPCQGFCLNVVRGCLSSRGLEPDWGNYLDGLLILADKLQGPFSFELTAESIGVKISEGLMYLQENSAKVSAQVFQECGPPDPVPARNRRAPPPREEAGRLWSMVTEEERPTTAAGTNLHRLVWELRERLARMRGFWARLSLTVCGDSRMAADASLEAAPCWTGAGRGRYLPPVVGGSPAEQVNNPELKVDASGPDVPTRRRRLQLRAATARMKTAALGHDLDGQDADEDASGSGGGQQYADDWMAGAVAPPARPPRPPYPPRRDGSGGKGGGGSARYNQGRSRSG
Procedure: (§1) To evaluate the specificity of humanized anti-GPC2 VHH5 to recombinant human GPC2 protein, an ELISA-based binding assay was conducted to determine the differential target proteins binding of anti-GPC2 VHH5. Briefly, microplates were coated with 2 μg/mL recombinant human GPC1-His (RD System, Cat #4519-GP), GPC2-His (RD System, Cat #2304-GP), GPC3-His (ACRO, Cat #GP3-H5223), GPC4-Fc (RD System, Cat #9195-GP), GPC5-His (RD System, Cat #2607-G5/CF), GPC6-His (RD System, Cat #2845-GP) or recombinant mouse GPC2-His (RD System, Cat #2355-GP) proteins. Recombinant human protein coated plates were blocked with skim milk. Serially diluted humanized VHH-hIgG1Fc recombinant antibodies were added to each well of the plates and incubated at 4° C. for 1.5 h. Samples were further labelled with HRP-conjugated goat anti human IgG (H+L) secondary antibody (Genescript, Cat #A00166-1) and signal was developed with 3,3′,5,5′-Tetramethylbenzidine (TMB) substrate according to manufacturer's instruction. For the GPC4, VHH-His recombinant antibodies and anti-His tag secondary antibody (Genescript, Cat #A00612) were added to the GPC4-Fc coated plates instead. Optic density at 450 nm was measured by plate reader.

[2] = molecular target: T2, recombinant human GPC2-His protein (Homo sapiens, UniProt Q8N158); experiment: SPR (Biacore T200) affinity of anti-GPC2 VHH-hIgG1Fc; settings: 1:1 binding model
T2 construct: His
T2 sequence (Q8N158 24-554): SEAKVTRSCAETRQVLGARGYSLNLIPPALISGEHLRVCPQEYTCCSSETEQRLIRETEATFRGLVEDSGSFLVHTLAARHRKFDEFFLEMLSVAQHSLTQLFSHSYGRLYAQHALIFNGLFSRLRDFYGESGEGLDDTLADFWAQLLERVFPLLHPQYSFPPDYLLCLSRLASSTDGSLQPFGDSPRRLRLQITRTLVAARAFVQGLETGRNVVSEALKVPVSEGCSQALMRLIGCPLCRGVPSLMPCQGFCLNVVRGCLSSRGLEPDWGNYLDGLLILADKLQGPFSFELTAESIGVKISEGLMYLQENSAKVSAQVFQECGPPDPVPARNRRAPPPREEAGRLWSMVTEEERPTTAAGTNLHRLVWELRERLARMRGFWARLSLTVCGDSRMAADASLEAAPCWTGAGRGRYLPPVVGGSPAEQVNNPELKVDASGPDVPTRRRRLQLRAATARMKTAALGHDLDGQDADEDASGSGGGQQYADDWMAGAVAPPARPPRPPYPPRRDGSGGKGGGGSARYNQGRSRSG
Procedure: Each of the exemplary anti-GPC2 VHH sequences was cloned into a vector comprising a human IgG1Fc fragment (hlgG1Fc) sequence to facilitate recombinant expression of anti-GPC2 VHH-hlgG1Fc. Recombinant proteins were obtained and purified for SPR assays. The affinity of each anti-GPC2 VHH-hIgG1Fc for GPC2 was determined by SPR using a BIACORE® T200 analytical system (GE Healthcare). Briefly, recombinant human GPC2-His protein was covalently coupled to a CM5(s) sensor chip using an amine coupling kit. Exemplary VHH-hIgG1Fc proteins were serially diluted in running buffer (10 mM HEPES, 150 mM NaCl, 3 mM EDTA, 0.05% Tween-20, pH 7.4) and injected over the chip cell at a flowrate of 100 μL/min for 100 seconds followed by buffer-only injection for 300 seconds to allow for antibody dissociation. The dissociation […] (KD) were determined using the BIACORE® T200 evaluation software version 3.0 (Langmuir binding, local fit, 1:1 binding model).

[3] = test system: cynomolgus monkey GPC2 expressing cell HEK293T/cynoGPC2; experiment: Flow cytometry binding of VHH-His proteins to HEK293T/cynoGPC2; settings: FIG. 4A-4C
Source text: (§2) Recombinant anti-GPC2 VHH-His proteins were constructed by fusing the anti-GPC2 VHH sequence to a mouse Ig heavy chain signal peptide sequence (N′-MGWSWILLFLLSVTAGVHS-C; SEQ ID NO: 179) at the N terminus, and a 6×His-tag (N′-HHHHHH-C; SEQ ID NO: 180) at the C terminus. The codons were further optimized for optimal expression in mammalian engineered immune effector cells. The obtained nucleotide sequences were then cloned into a mammalian expression vector pCDNA3.4 to provide expression plasmids.
(§3) Binding affinities of humanized VHH proteins AS70950VH6, AS71529VH6, AS72669VH6 and AS71529VH6-AS70950VH6 anti-GPC2 VHH-HIS proteins to human GPC2 expressing cells (SH-SY5Y and HEK293T/hGPC2) and cynomolgus monkey GPC2 expressing cell (HEK293T/cynoGPC2) were determined using flow cytometry. Briefly, serially diluted anti-GPC2 VHH-HIS proteins were incubated with 2×10^5 target cells at 4° C. for 30 mins. After washing, cells were further labelled with THE™ His tag Antibody (iFluor 647) (Genescript, #A01802) at 4° C. for 30 mins. Fluorescence intensity was measured by flow cytometry. A four parameters variable slope curve was fitted to each group using GraphPad Prism for Windows Version 6.02.

[4] = molecular target: T3, human GPC2 expressing cells SH-SY5Y (Homo sapiens, UniProt Q8N158); experiment: Flow cytometry binding of VHH-His proteins to SH-SY5Y; settings: FIG. 4A-4C
T3 construct: host or cells: SH-SY5Y
T3 sequence (Q8N158 24-554): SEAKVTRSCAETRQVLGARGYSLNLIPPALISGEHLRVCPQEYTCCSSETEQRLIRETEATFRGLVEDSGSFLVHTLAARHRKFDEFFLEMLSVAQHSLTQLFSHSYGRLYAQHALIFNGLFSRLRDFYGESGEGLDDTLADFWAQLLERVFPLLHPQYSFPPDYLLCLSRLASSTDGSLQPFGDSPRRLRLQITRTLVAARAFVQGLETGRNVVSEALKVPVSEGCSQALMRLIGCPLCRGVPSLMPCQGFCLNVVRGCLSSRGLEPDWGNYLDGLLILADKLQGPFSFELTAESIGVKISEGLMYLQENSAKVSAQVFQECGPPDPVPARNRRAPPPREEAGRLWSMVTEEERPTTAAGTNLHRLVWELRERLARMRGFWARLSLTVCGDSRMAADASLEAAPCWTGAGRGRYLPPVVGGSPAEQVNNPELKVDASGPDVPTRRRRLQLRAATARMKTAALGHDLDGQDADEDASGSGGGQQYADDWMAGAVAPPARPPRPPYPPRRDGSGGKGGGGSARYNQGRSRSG
Source text: as §2, §3

[5] = molecular target: T4, human GPC2 expressing cells HEK293T/hGPC2 (Homo sapiens, UniProt Q8N158); experiment: Flow cytometry binding of VHH-His proteins to HEK293T/hGPC2; settings: FIG. 4A-4C
T4 construct: expressed in transfected cells; host or cells: HEK293T (ATCC, #CRL-1573), plvx-EF1α-puro plasmid
T4 sequence (Q8N158 24-554): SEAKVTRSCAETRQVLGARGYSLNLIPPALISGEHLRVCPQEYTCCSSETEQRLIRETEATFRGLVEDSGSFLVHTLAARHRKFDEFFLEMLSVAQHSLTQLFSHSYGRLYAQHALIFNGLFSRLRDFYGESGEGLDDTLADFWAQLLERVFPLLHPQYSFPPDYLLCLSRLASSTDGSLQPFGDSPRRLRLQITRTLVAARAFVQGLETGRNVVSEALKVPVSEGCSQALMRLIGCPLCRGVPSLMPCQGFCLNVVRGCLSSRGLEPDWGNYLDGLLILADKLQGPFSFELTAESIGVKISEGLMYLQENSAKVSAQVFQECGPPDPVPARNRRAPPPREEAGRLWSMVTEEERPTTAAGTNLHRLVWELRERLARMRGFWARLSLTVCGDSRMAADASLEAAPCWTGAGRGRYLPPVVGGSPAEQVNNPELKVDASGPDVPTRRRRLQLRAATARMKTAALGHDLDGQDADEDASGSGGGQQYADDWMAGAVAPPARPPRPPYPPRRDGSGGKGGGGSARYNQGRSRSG
Source text: as §2, §3

[6] = test system: other recombinant human and murine GPC family proteins (human GPC1, GPC3, GPC4, GPC5, GPC6, mouse GPC2); experiment: ELISA-based specific binding assay, cross-reactivity; settings: FIG. 3A-3G
Procedure: as §1

Row | Molecule | binding to recombinant human GPC2 protein [1] | ka [2] | kd [2] | binding to HEK293T/cynoGPC2 [3] | binding to SH-SY5Y [4] | binding to HEK293T/hGPC2 [5] | cross-reactivity with other recombinant human and murine GPC family proteins [6]
1 | B1 | high affinity | 850000 M⁻¹ s⁻¹ | 0.0044 s⁻¹ |  |  |  | 
2 | B2 |  |  |  | specifically bind | specifically bind | specifically bind | 
3 | B3 | high affinity | 200000 M⁻¹ s⁻¹ | 0.00017 s⁻¹ |  |  |  | no cross-reactivity
4 | B4 |  |  |  | specifically bind | specifically bind | specifically bind | 
5 | B5 | high affinity | 390000 M⁻¹ s⁻¹ | 0.00011 s⁻¹ |  |  |  | no cross-reactivity
6 | B6 |  |  |  | specifically bind | specifically bind | specifically bind | 
7 | B7 |  |  |  | specifically bind | specifically bind | specifically bind | 
8 | B8 | high affinity | 530000 M⁻¹ s⁻¹ | 0.00019 s⁻¹ |  |  |  | no cross-reactivity
